T1: Ins 5 type mutant CALR protein on UT-7/TPO CALR Ins 5 cells (UniProt P27797 18-417)
T1 sequence (looked up): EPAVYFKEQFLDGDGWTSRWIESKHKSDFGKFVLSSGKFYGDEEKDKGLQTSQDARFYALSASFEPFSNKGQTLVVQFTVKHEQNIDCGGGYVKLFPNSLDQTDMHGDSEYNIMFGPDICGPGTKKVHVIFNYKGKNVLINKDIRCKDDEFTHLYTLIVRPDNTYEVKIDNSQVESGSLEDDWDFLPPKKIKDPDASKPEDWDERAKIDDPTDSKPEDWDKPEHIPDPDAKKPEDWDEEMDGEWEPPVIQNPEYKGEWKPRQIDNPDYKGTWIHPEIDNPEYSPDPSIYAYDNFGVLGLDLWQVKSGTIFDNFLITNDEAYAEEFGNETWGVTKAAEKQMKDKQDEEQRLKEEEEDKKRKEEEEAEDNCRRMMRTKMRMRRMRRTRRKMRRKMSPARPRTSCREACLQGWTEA

T2: protein having an Fc region and a His-tag added to the N-terminus of SEQ ID NO: 1
T2 construct: also called mutant CALR protein (antigen of the BLItz measurement); not shown: Fc region and His-tag at the N-terminus
T2 chain: RRMMRTKMRMRRM


Experiments:
[1] = target: T1, Ins 5 type mutant CALR protein on …; experiment: cell-based or functional assay
[2] = target: T2, protein having an Fc region and a …; experiment: BLItz biolayer interferometry, Fc/His-SEQ ID NO: 1 protein on the biosensor
Method in brief: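 The Fc/His-tagged protein was loaded at 0.1 mg/mL onto Anti-Penta-HIS or Protein A biosensors. Antibodies were run at 500, 100 and 50 nM by biolayer interferometry, and the dissociation constant was derived from these binding curves.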

[3] = target: T1, Ins 5 type mutant CALR protein on …; experiment: cell-based or functional assay; remark: listed apart in the source

Row | Kd [2] [nM] | Binder | EC50 of cytotoxic activity (calcein release, T-LAK effector cells) [1] [nM] | EC50 of cytotoxic activity (pM) [3] [pM]
1 | 6.55 | Antibody 9 (bispecific antibody, B3 VH-VL scFv and hOKT3 VH-VL scFv in one polypeptide, no Fc) QVQLQQSGAELVKPGSSVKISCKASGYTFTRNFIHWIKQQPGNGLEWIGWIFPGDGDTEYNQKFNGKATLTADKSSSTAYMQLSSLTSEDSAVYFCARGNYNYEYFDYWGQGVMVTVSSGGGGSGGGGSGGGGSDIQMTQSPASLSASLGETVSIECLASEDIYSYLAWYQQKPGKSPQLLIFAANRLQDGVPSRFSGSGSGTQFSLKISGMQPEDEGDYFCLQGSKFPYTFGPGTKLELNGGGGSQVQLVQSGGGVVQPGRSLRLSCKASGYTFTRYTMHWVRQAPGKGLEWIGYINPSRGYTNYNQKVKDRFTISRDNSKNTAFLQMDSLRPEDTGVYFCARYYDDHYSLDYWGQGTPVTVSSGGGGSGGGGSGGGGSDIQMTQSPSSLSASVGDRVTITCSASSSVSYMNWYQQTPGKAPKRWIYDTSKLASGVPSRFSGSGSGTDYTFTISSLQPEDIATYYCQQWSSNPFTFGQGTKLQITRHHHHHH | 1.53 | –
2 | < 0.001 | Antibody 89 (bispecific antibody) chain 1: not shown chain 2: DIQMTQSPSSLSASVGDRVTITCLASEDIYSYLAWYQQKPGKAPKLLIFAANRLQSGVPSRFSGSGSGTDFTLTISSLQPEDFATYYCLQGSKFPYTFGPGTKVDIKRTVAAPSVFIFPPSDEQLKSGTASVVCLLNNFYPREAKVQWKVDNALQSGNSQESVTEQDSKDSTYSLSSTLTLSKADYEKHKVYACEVTHQGLSSPVTKSFNRGEC | – | 77
3 | < 0.001 | Antibody 88 (bispecific antibody) chain 1: not shown chain 2: DIQMTQSPSSLSASVGDRVTITCLASEDIYSYLAWYQQKPGKAPKLLIFAANRLQSGVPSRFSGSGSGTDFTLTISSLQPEDFATYYCLQGSKFPYTFGPGTKVDIKRTVAAPSVFIFPPSDEQLKSGTASVVCLLNNFYPREAKVQWKVDNALQSGNSQESVTEQDSKDSTYSLSSTLTLSKADYEKHKVYACEVTHQGLSSPVTKSFNRGEC | – | 28
4 | < 0.001 | Antibody 91 (bispecific antibody) chain 1: not shown chain 2: DIQMTQSPSSLSASVGDRVTITCLASEDIYSYLAWYQQKPGKAPKLLIFAANRLQSGVPSRFSGSGSGTDFTLTISSLQPEDFATYYCLQGSKFPYTFGPGTKVDIKRTVAAPSVFIFPPSDEQLKSGTASVVCLLNNFYPREAKVQWKVDNALQSGNSQESVTEQDSKDSTYSLSSTLTLSKADYEKHKVYACEVTHQGLSSPVTKSFNRGEC | – | 230
5 | < 0.001 | Antibody 90 (bispecific antibody) chain 1: not shown chain 2: DIQMTQSPSSLSASVGDRVTITCLASEDIYSYLAWYQQKPGKAPKLLIFAANRLQSGVPSRFSGSGSGTDFTLTISSLQPEDFATYYCLQGSKFPYTFGPGTKVDIKRTVAAPSVFIFPPSDEQLKSGTASVVCLLNNFYPREAKVQWKVDNALQSGNSQESVTEQDSKDSTYSLSSTLTLSKADYEKHKVYACEVTHQGLSSPVTKSFNRGEC | – | 269
6 | < 0.001 | Antibody 94 (bispecific antibody) chain 1: not shown chain 2: DIQMTQSPSSLSASVGDRVTITCLASEDIYSYLAWYQQKPGKAPKLLIFAANRLQDGVPSRFSGSGSGTDFTLTISSLQPEDFATYYCLQGSKFPYTFGPGTKVDIKRTVAAPSVFIFPPSDEQLKSGTASVVCLLNNFYPREAKVQWKVDNALQSGNSQESVTEQDSKDSTYSLSSTLTLSKADYEKHKVYACEVTHQGLSSPVTKSFNRGEC | – | 32
7 | 5700 | Antibody 29 (bispecific antibody, format not described) chain 1: QVQLVQSGAEVKKPGASVKVSCKASGYSFTGYYIHWVRQAPGQGLEWIGYISAYNGASSYNQKFKGRATFTVDTSISTAYMELSRLRSDDTAVYYCASSMDYWGQGTLVTVSSASTKGPSVFPLAPSSKSTSGGTAALGCLVKDYFPEPVTVSWNSGALTSGVHTFPAVLQSSGLYSLSSVVTVPSSSLGTQTYICNVNHKPSNTKVDKRVEPKSCGGGGSQVQLVQSGGGVVQPGRSLRLSCKASGYTFTRYTMHWVRQAPGKGLEWIGYINPSRGYTNYNQKVKDRFTISRDNSKNTAFLQMDSLRPEDTGVYFCARYYDDHYSLDYWGQGTPVTVSSGGGGSGGGGSGGGGSDIQMTQSPSSLSASVGDRVTITCSASSSVSYMNWYQQTPGKAPKRWIYDTSKLASGVPSRFSGSGSGTDYTFTISSLQPEDIATYYCQQWSSNPFTFGQGTKLQITRHHHHHH chain 2: DVVMTQSPLSLPVTLGQPASISCKSSQSLLDSDGKTYLNWLQQRPGQSPKRLIYLVSKLDSGVPDRFSGSGSGTDFTLKISRVEAEDVGVYHCWQGTHFPYTFGQGTKLEIKRTVAAPSVFIFPPSDEQLKSGTASVVCLLNNFYPREAKVQWKVDNALQSGNSQESVTEQDSKDSTYSLSSTLTLSKADYEKHKVYACEVTHQGLSSPVTKSFNRGEC | 0.634 | –

The next lines start with the binder.

Row | Binder | Kd [2] [nM] | EC50 of cytotoxic activity (calcein release, T-LAK effector cells) [1] [nM] | EC50 of cytotoxic activity (pM) [3] [pM]
8 | Antibody 86 (bispecific antibody) chain 1: not shown chain 2: DIQMTQSPSSLSASVGDRVTITCLASEDIYSYLAWYQQKPGKAPKLLIFAANRLQSGVPSRFSGSGSGTDFTLTISSLQPEDFATYYCLQGSKFPYTFGPGTKVDIKRTVAAPSVFIFPPSDEQLKSGTASVVCLLNNFYPREAKVQWKVDNALQSGNSQESVTEQDSKDSTYSLSSTLTLSKADYEKHKVYACEVTHQGLSSPVTKSFNRGEC | < 0.001 | – | 58
9 | Antibody 92 (bispecific antibody) chain 1: not shown chain 2: DIQMTQSPSSLSASVGDRVTITCLASEDIYSYLAWYQQKPGKAPKLLIFAANRLQSGVPSRFSGSGSGTDFTLTISSLQPEDFATYYCLQGSKFPYTFGPGTKVDIKRTVAAPSVFIFPPSDEQLKSGTASVVCLLNNFYPREAKVQWKVDNALQSGNSQESVTEQDSKDSTYSLSSTLTLSKADYEKHKVYACEVTHQGLSSPVTKSFNRGEC | < 0.001 | – | 47
10 | B3 chimeric antibody (antibody, human IgG1, kappa, L234A L235A, monospecific anti-mutant CALR antibody, no CD3 arm) heavy: not shown light: DIQMTQSPASLSASLGETVSIECLASEDIYSYLAWYQQKPGKSPQLLIFAANRLQDGVPSRFSGSGSGTQFSLKISGMQPEDEGDYFCLQGSKFPYTFGPGTKLELNRTVAAPSVFIFPPSDEQLKSGTASVVCLLNNFYPREAKVQWKVDNALQSGNSQESVTEQDSKDSTYSLSSTLTLSKADYEKHKVYACEVTHQGLSSPVTKSFNRGEC | < 0.001 | > 10 | –
11 | Antibody 14 (bispecific antibody, human IgG1, kappa, L234A L235A, B3 IgG with hOKT3 scFv fused to the heavy chain C-terminus) heavy: not shown light: DIQMTQSPASLSASLGETVSIECLASEDIYSYLAWYQQKPGKSPQLLIFAANRLQDGVPSRFSGSGSGTQFSLKISGMQPEDEGDYFCLQGSKFPYTFGPGTKLELNRTVAAPSVFIFPPSDEQLKSGTASVVCLLNNFYPREAKVQWKVDNALQSGNSQESVTEQDSKDSTYSLSSTLTLSKADYEKHKVYACEVTHQGLSSPVTKSFNRGEC | < 0.001 | 0.989 | –
12 | Antibody 15 (bispecific antibody, human IgG1, kappa, L234A L235A, B3 half IgG hetero-associated by knob-into-hole with hOKT3 scFv-Fc) heavy: not shown light: DIQMTQSPASLSASLGETVSIECLASEDIYSYLAWYQQKPGKSPQLLIFAANRLQDGVPSRFSGSGSGTQFSLKISGMQPEDEGDYFCLQGSKFPYTFGPGTKLELNRTVAAPSVFIFPPSDEQLKSGTASVVCLLNNFYPREAKVQWKVDNALQSGNSQESVTEQDSKDSTYSLSSTLTLSKADYEKHKVYACEVTHQGLSSPVTKSFNRGEC QVQLVQSGGGVVQPGRSLRLSCKASGYTFTRYTMHWVRQAPGKGLEWIGYINPSRGYTNYNQKVKDRFTISRDNSKNTAFLQMDSLRPEDTGVYFCARYYDDHYSLDYWGQGTPVTVSSGGGGSGGGGSGGGGSDIQMTQSPSSLSASVGDRVTITCSASSSVSYMNWYQQTPGKAPKRWIYDTSKLASGVPSRFSGSGSGTDYTFTISSLQPEDIATYYCQQWSSNPFTFGQGTKLQITREPKSCDKTHTCPPCPAPEAAGGPSVFLFPPKPKDTLMISRTPEVTCVVVDVSHEDPEVKFNWYVDGVEVHNAKTKPREEQYNSTYRVVSVLTVLHQDWLNGKEYKCKVSNKALPAPIEKTISKAKGQPREPQVCTLPPSREEMTKNQVSLSCAVKGFYPSDIAVEWESNGQPENNYKTTPPVLDSDGSFFLVSKLTVDKSRWQQGNVFSCSVMHEALHNHYTQKSLSLSPGK | 6.68 | 1.29 | –
13 | Antibody 13 (bispecific antibody, human IgG1, kappa, L234A L235A, B3 IgG with knob-into-hole heavy chains, hOKT3 scFv fused to the C-terminus of one heavy chain) heavy 1: not shown heavy 2: QVQLQQSGAELVKPGSSVKISCKASGYTFTRNFIHWIKQQPGNGLEWIGWIFPGDGDTEYNQKFNGKATLTADKSSSTAYMQLSSLTSEDSAVYFCARGNYNYEYFDYWGQGVMVTVSSASTKGPSVFPLAPSSKSTSGGTAALGCLVKDYFPEPVTVSWNSGALTSGVHTFPAVLQSSGLYSLSSVVTVPSSSLGTQTYICNVNHKPSNTKVDKRVEPKSCDKTHTCPPCPAPEAAGGPSVFLFPPKPKDTLMISRTPEVTCVVVDVSHEDPEVKFNWYVDGVEVHNAKTKPREEQYNSTYRVVSVLTVLHQDWLNGKEYKCKVSNKALPAPIEKTISKAKGQPREPQVCTLPPSREEMTKNQVSLSCAVKGFYPSDIAVEWESNGQPENNYKTTPPVLDSDGSFFLVSKLTVDKSRWQQGNVFSCSVMHEALHNHYTQKSLSLSPGKGGGGSQVQLVQSGGGVVQPGRSLRLSCKASGYTFTRYTMHWVRQAPGKGLEWIGYINPSRGYTNYNQKVKDRFTISRDNSKNTAFLQMDSLRPEDTGVYFCARYYDDHYSLDYWGQGTPVTVSSGGGGSGGGGSGGGGSDIQMTQSPSSLSASVGDRVTITCSASSSVSYMNWYQQTPGKAPKRWIYDTSKLASGVPSRFSGSGSGTDYTFTISSLQPEDIATYYCQQWSSNPFTFGQGTKLQITR light: DIQMTQSPASLSASLGETVSIECLASEDIYSYLAWYQQKPGKSPQLLIFAANRLQDGVPSRFSGSGSGTQFSLKISGMQPEDEGDYFCLQGSKFPYTFGPGTKLELNRTVAAPSVFIFPPSDEQLKSGTASVVCLLNNFYPREAKVQWKVDNALQSGNSQESVTEQDSKDSTYSLSSTLTLSKADYEKHKVYACEVTHQGLSSPVTKSFNRGEC | < 0.001 | 4.47 | –

From US20240092890A1 (JUNTENDO EDUCATIONAL FOUNDATION, published 2024)
